Positions count from the first letter of the chain named. Names may count otherwise. Blank lines part the entries; values can stand above or below the binder they belong to.
What was measured:
hTF (Thromborel S) [1] = target: T1, hTF (Thromborel S) (human, UniProt P13726 33-295); assay: cell-based or functional assay
shTF [2] = target: T2, shTF (human, UniProt P13726 33-251, limits assumed); assay: competitive ELISA on coated shTF against biotinylated anti-human TF antibody; anion exchange subpeak
T2 construct: also called human tissue factor
T2 sequence (P13726 33-251 limits assumed): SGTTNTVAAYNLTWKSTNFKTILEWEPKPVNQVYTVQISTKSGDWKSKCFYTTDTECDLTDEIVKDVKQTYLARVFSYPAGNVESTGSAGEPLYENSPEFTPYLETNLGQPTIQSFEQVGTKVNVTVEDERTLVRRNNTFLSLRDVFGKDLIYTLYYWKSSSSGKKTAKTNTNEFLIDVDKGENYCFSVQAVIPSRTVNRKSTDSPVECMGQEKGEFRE
Protocol: (§1) shTF was adjusted to 20 nM with coating buffer (hereafter, indicated as CB), dispensed at 100 μl/well into a 96-well plate and incubated at 4° C. overnight. Each well was washed three times with rinse buffer (hereafter, indicated as RB); 200 μl dilution buffer (hereafter, indicated as DB) was added to each well. The plate was left standing at room temperature for 2 hours for blocking. […] The plate was washed three times with RB. After 100 μl ALP-streptavidin diluted 5,000-fold with DB was dispensed to each well, the plate was left standing for 1 hour at room temperature. Each well was washed 5 times with RB, and SIGMA104 adjusted with substrate buffer (hereafter, indicated as SB) to 1 mg/ml was dispensed to each well. Plates were left standing for 30 min at room temperature for color development and measured with a microplate reader at a wavelength of 405 nm and a control wavelength of 655 nm.
This was taken as the binding activity.

shTF [3] = target: T2, shTF; assay: TF binding activity after 4 weeks at 40 C, pH 7.5, against own initial value (FIG. 13B)
shTF [4] = target: T2, shTF; assay: competitive ELISA on coated shTF against biotinylated anti-human TF antibody; anion exchange main peak
Protocol: as §1
This was taken as the binding activity.

hTF (Thromborel S) [5] = target: T1, hTF (Thromborel S); assay: cell-based or functional assay; remark: listed apart in the source

T1 sequence (P13726 33-295 limits assumed): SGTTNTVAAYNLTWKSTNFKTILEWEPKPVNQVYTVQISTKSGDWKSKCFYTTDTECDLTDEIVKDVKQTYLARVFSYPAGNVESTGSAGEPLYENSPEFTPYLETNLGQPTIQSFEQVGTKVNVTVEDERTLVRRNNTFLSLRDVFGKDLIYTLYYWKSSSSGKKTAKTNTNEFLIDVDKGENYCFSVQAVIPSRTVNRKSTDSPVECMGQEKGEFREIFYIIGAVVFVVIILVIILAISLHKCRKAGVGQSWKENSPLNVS

Calculated concentration (ng/ml) at 250 ng/ml added (hTF (Thromborel S) [1]): 253 ng/mL
B1: anti-human TF antibody N28D mutant (antibody, human IgG4 S228P, kappa, V domains shown)
VH: QVQLLESGAVLARPGTSVKISCKASGFDIKDYYMHWVKQRPGQGLEWIGGNDPANGHSMYDPKFQGRVTITADTSTSTVFMELSSLRSEDTAVYYCARDSGYAMDYWGQGTLVTVSS
VL: DIQMTQSPSSLSASVGDRVTITCKASQDIKSFLSWYQQKPEKAPKSLIYYATSLADGVPSRFSGSGSGTDYTLTISSLQPEDFATYYCLQHGESPYTFGGGTKVEIKR

Calculated concentration (ng/ml) at 250 ng/ml added (hTF (Thromborel S) [1]): 248 ng/mL
Neutralizing activity ratio (%) (hTF (Thromborel S) [1]): 99.1%
Binding Activity, Peak 2 (% of standard antibody) (shTF [2]): 70.6%
TF binding activity after 4 weeks of accelerated testing (% of its activity before) (shTF [3]): ~60%
Binding Activity, Peak 1 (% of standard antibody) (shTF [4]): 100%
TF neutralizing activity (Equation 2, relative to standard antibody) (hTF (Thromborel S) [5]): 66%
TF neutralizing activity after accelerated testing at 40 C for 4 weeks, relative to the initial value (hTF (Thromborel S) [5]): ~40%
B2: anti-human TF antibody described in WO 99/51743 (humanized heavy chain version i, humanized light chain version b2) (antibody, human IgG4 S228P, kappa, V domains shown)
VH: B1 VH with D28N
VL: B1 VL
notes: Expressed as human IgG from vector pN5KG4P-AHi-ALb2; also called original anti-human TF antibody; Original

Calculated concentration (ng/ml) at 250 ng/ml added (hTF (Thromborel S) [1]): 31.3 ng/mL
B3: anti-human TF antibody N51D/N55D double mutant (antibody, human IgG4 S228P, kappa, V domains shown)
VH: B1 VH with D28N, N51D, N55D
VL: B1 VL

Calculated concentration (ng/ml) at 250 ng/ml added (hTF (Thromborel S) [1]): 49.8 ng/mL
B4: anti-human TF antibody N55D mutant (antibody, human IgG4 S228P, kappa, V domains shown)
VH: B1 VH with D28N, N55D
VL: B1 VL

Calculated concentration (ng/ml) at 250 ng/ml added (hTF (Thromborel S) [1]): 164 ng/mL
B5: anti-human TF antibody N51D mutant (antibody, human IgG4 S228P, kappa, V domains shown)
VH: B1 VH with D28N, N51D
VL: B1 VL

Reference: patent US20060287508A1 (Chugai, published 2006)
